From US20220040319A1 (Regeneron, published 2022)

B1: H4H13311P2 (antibody, human IgG4, V domains shown)
VH: QVQLVESGGGVVQPGRSLRLSCAASGFTFSSYAMHWVRQAPGRGLEWVAVIWHDGDVEYYVDSVKDRFTISRDNSKSTLYLQMNSLRAEDTALYYCAREAWDLLRPFDYWGQGTLVTVSS
VL: not shown
notes: human IgG4 Fc (H4H), bivalent monospecific
B2: H4H13290P2 (antibody, human IgG4, V domains shown)
VH: QVQLQESGPGLVKPSETLSLTCTVSGDSISSYYWTWIRQPPGKGLEWIGYIFYRGGTTYNPSLKSRVTISVDTSKNQFSLKLRSVTAADTAVYYCARGDDLLVVTSVYWYIDLWGRGTLVTVSS
VL: not shown
notes: as for B1
B3: H4H13309P2 (antibody, human IgG4, V domains shown)
VH: QVQLVQSGTEVKEPGASVKVSCKASGYSFTTYGISWLRQAPGQGLEWMGWISTYNGDTISAQMLQDRVTLTADTSTRTAYMELRSLRSDDTAVYYCARGHEYDSLVYSYWGQGTLVTVSS
VL: not shown
notes: as for B1
B4: H4H16445D (bispecific antibody, human IgG4, V domains shown)
VH 1: QVQLVESGGGVVQPGGSLRLSCAASGFTFSGYGMHWVRQAPGKGLEWMAVIWYDGSNDYYPDSVKGRFTISRDNSKNTLYLQMNSLRVEDTAVYYCARDAWDLLRSFDYWGQGTLVTVSS
VH 2: EVQLVESGGGLVQPGGSLRLSCAASGFIVTTNYMTWLRQAPGKGLEWVSLIYSSGHTYYADSVKGRFTISRHNSKNTLYLQMDSLRAEDTAVYYCASAFAADVFDIWGQGTMVTVSS
VL: not shown
B5: H4H16449D (bispecific antibody, human IgG4, V domains shown)
VH 1: QVQLVESGGGVVQPGRSLRLSCAASGFTFSSFAMHWVRQAPGKGLEWVAVIWYDGSNDYYAASVKGRFTISRDNSKNTLYLEMNRLRAEDTAVYHCARDNWNYWGGMDVWGQGTTVTVSS
VH 2: B4 VH 2
VL: not shown
B6: H4H16448D (bispecific antibody, human IgG4, V domains shown)
VH 1: QVQLVESGGGVVQPGRSLRLSCVASGFSFSNFGMHWVRQAPGKGLEWVAIIWYDGSNKYYSDSVKGRFTISRDNSKNTLYLQMNSLRVDDTAVYYCARFDRWKFDAFDIWGQGTMVTVSS
VH 2: B4 VH 2
VL: not shown
B7: H4H16447D (bispecific antibody, human IgG4, V domains shown)
VH 1: B1 VH
VH 2: B4 VH 2
VL: not shown
B8: H4H16446D (bispecific antibody, human IgG4, V domains shown)
VH 1: QVQLVESGGGVVQPGRSLRLSCAVSGFTFSSYGMHWVRQAPGKGLEWVANIWYDGTNDYYPYSVKGRFTISRDNSQNTLYLQMNSLRAEDTAVYYCAREDFINYRSFDYWGQGTLVTVSS
VH 2: B4 VH 2
VL: not shown

biological target: T1, hMET.mFc (dimeric human MET) (human, UniProt P08581 27-307); experiment: SPR 37C, antibody captured
T1 construct: soluble dimeric MET protein
Description: (§1) The anti-Met antibodies tested in this example were bivalent monospecific binders of MET.
(§2) Kinetic association (kₐ) and dissociation (kd) rate constants were determined by fitting the real-time sensorgrams to a 1:1 binding model using Scrubber 2.0c curve fitting software. Binding dissociation equilibrium constant (KD) and dissociative half-life (t1/2) were calculated from the kinetic rate constants as: […]

T1 sequence (P08581 other isoform, or with tags, fused parts or gaps limits assumed, chain 1 of 2): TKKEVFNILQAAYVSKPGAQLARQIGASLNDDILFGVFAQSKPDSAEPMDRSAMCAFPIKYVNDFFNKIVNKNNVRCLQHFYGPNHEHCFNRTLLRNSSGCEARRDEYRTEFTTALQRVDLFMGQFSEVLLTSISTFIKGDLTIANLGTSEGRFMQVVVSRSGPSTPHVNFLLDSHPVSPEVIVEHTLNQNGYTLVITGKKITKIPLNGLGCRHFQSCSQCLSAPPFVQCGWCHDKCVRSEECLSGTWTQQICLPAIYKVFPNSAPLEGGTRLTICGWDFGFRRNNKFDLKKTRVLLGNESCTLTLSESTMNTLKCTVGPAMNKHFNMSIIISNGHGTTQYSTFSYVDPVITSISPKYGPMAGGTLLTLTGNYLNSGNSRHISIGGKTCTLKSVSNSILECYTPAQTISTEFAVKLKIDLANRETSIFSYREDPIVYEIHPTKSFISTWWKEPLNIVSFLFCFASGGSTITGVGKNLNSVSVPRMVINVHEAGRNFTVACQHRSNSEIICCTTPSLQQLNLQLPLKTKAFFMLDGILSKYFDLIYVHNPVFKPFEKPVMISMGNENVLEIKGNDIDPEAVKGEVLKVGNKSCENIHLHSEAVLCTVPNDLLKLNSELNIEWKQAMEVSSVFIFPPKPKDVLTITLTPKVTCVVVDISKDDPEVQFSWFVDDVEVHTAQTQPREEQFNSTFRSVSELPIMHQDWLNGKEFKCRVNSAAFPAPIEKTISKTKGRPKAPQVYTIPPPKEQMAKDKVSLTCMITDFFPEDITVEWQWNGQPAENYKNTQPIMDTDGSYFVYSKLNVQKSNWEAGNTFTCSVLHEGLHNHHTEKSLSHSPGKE
T1 sequence (P08581 27-307 limits assumed, chain 2 of 2): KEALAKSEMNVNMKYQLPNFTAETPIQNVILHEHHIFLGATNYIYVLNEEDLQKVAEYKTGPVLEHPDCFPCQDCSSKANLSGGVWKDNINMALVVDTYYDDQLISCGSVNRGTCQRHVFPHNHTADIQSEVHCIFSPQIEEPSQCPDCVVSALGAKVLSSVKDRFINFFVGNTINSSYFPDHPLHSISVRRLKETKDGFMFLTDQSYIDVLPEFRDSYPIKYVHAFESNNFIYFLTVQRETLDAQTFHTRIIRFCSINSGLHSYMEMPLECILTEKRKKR

Row | Kd [nM] | T½ [min] | koff [s⁻¹] | kon [M⁻¹ s⁻¹] | Binder
1 | 1.55 | 24.7 | 0.000468 | 302000 | B1
2 | 0.513 | 36.6 | 0.000315 | 615000 | B2
3 | 0.657 | 43.3 | 0.000267 | 406000 | B3

biological target: T2, hMet.mmh (human MET extracellular domain with C-terminal myc-myc-hexahistidine tag) (human, UniProt P08581 309-914; P08581 27-307); experiment: SPR 37C, antibody captured
T2 construct: soluble monomeric MET; also called monomeric human MET
Description: as §1, §2

T2 sequence (P08581 other isoform, or with tags, fused parts or gaps limits assumed, chain 1 of 2): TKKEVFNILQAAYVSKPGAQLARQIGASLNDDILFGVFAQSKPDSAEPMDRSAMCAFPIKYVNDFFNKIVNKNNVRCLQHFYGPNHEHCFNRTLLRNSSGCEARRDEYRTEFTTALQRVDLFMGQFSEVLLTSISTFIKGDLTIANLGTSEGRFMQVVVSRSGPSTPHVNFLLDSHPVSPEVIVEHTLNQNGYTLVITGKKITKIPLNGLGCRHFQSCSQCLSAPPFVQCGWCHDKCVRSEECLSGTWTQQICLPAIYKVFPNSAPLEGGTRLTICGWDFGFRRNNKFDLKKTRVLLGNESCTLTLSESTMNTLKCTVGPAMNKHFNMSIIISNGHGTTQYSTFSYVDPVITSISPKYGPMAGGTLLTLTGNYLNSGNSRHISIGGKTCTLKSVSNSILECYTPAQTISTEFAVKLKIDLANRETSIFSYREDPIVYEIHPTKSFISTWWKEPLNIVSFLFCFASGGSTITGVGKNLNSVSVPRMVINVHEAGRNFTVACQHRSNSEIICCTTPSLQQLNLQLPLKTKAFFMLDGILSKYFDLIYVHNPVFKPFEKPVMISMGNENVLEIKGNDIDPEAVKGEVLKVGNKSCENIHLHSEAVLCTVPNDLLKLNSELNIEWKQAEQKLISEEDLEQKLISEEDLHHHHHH
T2 sequence (P08581 27-307 limits assumed, chain 2 of 2): as the sequence (P08581 27-307 limits assumed, chain 2 of 2) above

Row | Kd [nM] | T½ [min] | koff [s⁻¹] | kon [M⁻¹ s⁻¹] | Binder
4 | 116 | 2.2 | 0.00519 | 44800 | B1
5 | 3.17 | 14.4 | 0.000803 | 253000 | B2
6 | 6.38 | 19.7 | 0.000587 | 92000 | B3

biological target: human MET on cells (human, UniProt P08581 25-1390); experiment: cell-based or functional assay; on % Inhibition, HEK293/SRE-Luc Blocking Activity (HGF, 1 h mAb pre-bind): test concentration or dose not given here
Sequence (P08581 25-1390 limits assumed, form in doubt): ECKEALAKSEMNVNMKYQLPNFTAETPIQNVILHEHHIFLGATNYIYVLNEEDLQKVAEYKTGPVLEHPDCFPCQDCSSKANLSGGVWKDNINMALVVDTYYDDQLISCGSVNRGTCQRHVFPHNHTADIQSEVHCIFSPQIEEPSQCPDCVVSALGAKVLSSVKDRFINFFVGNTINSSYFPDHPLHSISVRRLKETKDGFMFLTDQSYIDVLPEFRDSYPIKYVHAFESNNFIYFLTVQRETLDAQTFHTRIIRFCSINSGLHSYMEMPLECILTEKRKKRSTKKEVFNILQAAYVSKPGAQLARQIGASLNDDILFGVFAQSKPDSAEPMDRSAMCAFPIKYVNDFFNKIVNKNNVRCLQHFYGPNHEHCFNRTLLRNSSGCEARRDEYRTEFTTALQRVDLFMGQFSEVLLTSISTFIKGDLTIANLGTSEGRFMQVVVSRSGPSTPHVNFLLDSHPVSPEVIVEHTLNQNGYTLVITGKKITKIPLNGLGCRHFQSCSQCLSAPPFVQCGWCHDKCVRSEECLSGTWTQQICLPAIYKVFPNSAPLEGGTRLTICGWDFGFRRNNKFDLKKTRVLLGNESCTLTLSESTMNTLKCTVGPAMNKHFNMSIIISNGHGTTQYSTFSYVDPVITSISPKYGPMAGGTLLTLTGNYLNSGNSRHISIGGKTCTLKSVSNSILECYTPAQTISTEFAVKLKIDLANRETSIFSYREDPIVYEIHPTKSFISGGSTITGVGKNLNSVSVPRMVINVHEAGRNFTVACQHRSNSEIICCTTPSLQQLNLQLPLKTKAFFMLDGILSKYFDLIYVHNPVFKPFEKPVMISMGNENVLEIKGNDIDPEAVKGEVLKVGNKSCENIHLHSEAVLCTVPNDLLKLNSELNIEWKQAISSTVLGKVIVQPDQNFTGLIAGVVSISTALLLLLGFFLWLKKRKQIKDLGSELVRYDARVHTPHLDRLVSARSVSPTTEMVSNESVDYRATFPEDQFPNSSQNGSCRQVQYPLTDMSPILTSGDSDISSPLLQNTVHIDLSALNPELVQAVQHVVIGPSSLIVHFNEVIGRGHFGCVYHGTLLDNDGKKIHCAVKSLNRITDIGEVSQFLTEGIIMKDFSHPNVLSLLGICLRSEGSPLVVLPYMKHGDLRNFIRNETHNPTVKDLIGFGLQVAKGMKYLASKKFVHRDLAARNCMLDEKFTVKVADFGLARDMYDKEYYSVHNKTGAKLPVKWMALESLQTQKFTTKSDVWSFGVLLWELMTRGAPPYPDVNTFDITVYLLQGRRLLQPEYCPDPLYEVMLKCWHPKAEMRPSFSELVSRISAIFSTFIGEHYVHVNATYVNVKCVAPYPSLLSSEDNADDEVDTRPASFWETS

Row | % Inhibition, HEK293/SRE-Luc Blocking Activity (HGF, 1 h mAb pre-bind) [%] | EC50, Ligand (HGF)-Independent HEK293/SRE-Luc Activation [nM] | Fold Response, Ligand (HGF)-Independent HEK293/SRE-Luc Activation [fold] | IC50, HEK293/SRE-Luc Blocking Activity (HGF, 1 h mAb pre-bind) [nM] | Binder
7 | 81 | 1 | 4.3 | 0.52 | B4
8 | 85 | 0.42 | 4.2 | 0.32 | B5
9 | 87 | 0.91 | 4.3 | 0.62 | B6
10 | 76 | 1.4 |  |  | B7
11 | 83 | 1.4 | 4 | 1 | B8
